# Values of other authors in patent US4786501A, “Cylindrical implants for the controlled release of growth hormones” (International Minerals & Chemical Corp., priority 1985, dated 1988).
# Legend:
# cows = details: field trials, Machlin 1973
# young swine = details: field trials
Molecule,feed-to-milk conversion (cows),milk production (cows),growth rates (young swine)
"BGH: bovine growth hormone purified from pituitary glands, protein containing 191 amino acid residues (protein, UniProt P01246 27-217, looked up) Somatotropin: AFPAMSLSGLFANAVLRAQHLHQLAADTFKEFERTYIPEGQRYSIQNTQVAFCFSETIPAPTGKNEAQQKSDLELLRISLLLIQSWLGPLQFLSRVFTNSLVFGTSDRVYEKLKDLEEGILALMRELEDGTPRAGQILKQTYDKFDTNMRSDDALLKNYGLLSCFRKDLHKTETYLRVMKCRRFGEASCAF",improved feed-to-milk conversion,increased milk production,
"native PGH: native porcine growth hormone, protein containing 191 amino acid residues (protein, UniProt P01248 27-216, looked up) Somatotropin: FPAMPLSSLFANAVLRAQHLHQLAADTYKEFERAYIPEGQRYSIQNAQAAFCFSETIPAPTGKDEAQQRSDVELLRFSLLLIQSWLGPVQFLSRVFTNSLVFGTSDRVYEKLKDLEEGIQALMRELEDGSPRAGQILKQTYDKFDTNLRSDDALLKNYGLLSCFKKDLHKAETYLRVMKCRRFVESSCAF",,,increased growth rates
